Source: article PMC10754036 (Nature structural & molecular biology, 2018)

Biological target: PSD95, His tagged recombinant (UniProt P78352 1-724)
Experiment: BLI

PSD95, His tagged recombinant, sequence (P78352 whole entry): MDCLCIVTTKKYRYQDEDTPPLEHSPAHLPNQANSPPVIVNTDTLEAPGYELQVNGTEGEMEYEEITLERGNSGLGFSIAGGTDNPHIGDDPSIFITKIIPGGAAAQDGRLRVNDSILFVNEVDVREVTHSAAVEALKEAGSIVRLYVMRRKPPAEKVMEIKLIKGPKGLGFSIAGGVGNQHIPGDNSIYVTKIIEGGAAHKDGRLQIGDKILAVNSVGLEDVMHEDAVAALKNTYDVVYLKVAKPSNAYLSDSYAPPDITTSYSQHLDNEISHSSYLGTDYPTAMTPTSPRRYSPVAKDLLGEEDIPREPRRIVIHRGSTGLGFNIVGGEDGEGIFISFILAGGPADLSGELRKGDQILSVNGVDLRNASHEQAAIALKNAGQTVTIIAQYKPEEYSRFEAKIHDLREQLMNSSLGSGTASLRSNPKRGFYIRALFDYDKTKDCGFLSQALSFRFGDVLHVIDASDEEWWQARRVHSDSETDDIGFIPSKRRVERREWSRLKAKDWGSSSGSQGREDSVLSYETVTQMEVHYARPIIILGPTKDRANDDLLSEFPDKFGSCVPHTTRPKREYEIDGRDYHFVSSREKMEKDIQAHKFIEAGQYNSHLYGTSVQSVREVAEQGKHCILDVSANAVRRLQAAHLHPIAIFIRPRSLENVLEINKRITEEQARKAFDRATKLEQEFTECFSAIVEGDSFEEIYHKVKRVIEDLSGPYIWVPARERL

B1: NS1 of A/Brevig Mission/1/1918 (H1N1) influenza A virus, His tagged recombinant (natural protein)
chain: MDSNTVSSFQVDCFLWHVRKRFADQELGDAPFLDRLRRDQKSLRGRGSTLGLDIETATRAGKQIVERILKEESDEALKMTIASVPASRYLTDMTLEEMSRDWFMLMPKQKVAGSLCIRMDQAIMDKNIILKANFSVIFDRLETLILLRAFTEEGAIVGEISPLPSLPGHTDEDVKNAVGVLIGGLEWNDNTVRVSETLQRFAWRSSNENGRPPLPPKQKRKMARTIKSEV
Binder B1 has a Kd of 1600 nM.
